Data from EP2158221B1 (MacroGenics, Inc., dated 2018).
Values belong to the binder of their own block, whether it stands above or below them.

Key:
[1] = biological target: T1, soluble CD16A (sCD16A) (human, UniProt P08637 17-208); assay: sandwich ELISA, CD32B coat, HRP-CD16 probe
T1 construct: extracellular domain; also called sCD16A-Biotin; HRP conjugated sCD16A

[2] = biological target: T2, sCD32B-Ig (human, UniProt P31994 43-217); assay: sandwich ELISA, CD32B coat, HRP-CD16 probe
T2 construct: extracellular domain; also called CD32B (plate coat of the sandwich ELISA); not shown: Ig part not described
T2 sequence (looked up): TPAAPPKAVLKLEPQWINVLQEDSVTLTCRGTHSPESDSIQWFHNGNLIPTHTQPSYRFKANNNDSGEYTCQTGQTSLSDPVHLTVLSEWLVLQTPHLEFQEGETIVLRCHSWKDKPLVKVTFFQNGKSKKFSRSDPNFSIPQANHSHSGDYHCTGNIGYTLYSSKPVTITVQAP

T1 sequence (P08637 17-208): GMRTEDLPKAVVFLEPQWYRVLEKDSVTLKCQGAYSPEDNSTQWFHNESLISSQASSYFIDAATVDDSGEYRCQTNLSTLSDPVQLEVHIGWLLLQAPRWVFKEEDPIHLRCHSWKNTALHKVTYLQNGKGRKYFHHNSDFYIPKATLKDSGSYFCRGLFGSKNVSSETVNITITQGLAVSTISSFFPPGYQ

binding result [1]: binds
binding result [2]: binds
B1: diabody of constructs 9 and 1 (pMGX0719 + pMGX0669) (bispecific antibody, human IgG1)
chain 1: not shown
chain 2: EIVLTQSPDFQSVTPKEKVTFTCRTSQSIGTNIHWYQQKPDQSPKLLIKEVSESISGVPSRFSGSGSGTDFTLTINSLEAEDAATYYCQQSNTWPFTFGGGTKVEIKGGGSGGGGQVTLRESGPALVKPTQTLTLTCTFSGFSLSTSGMGVGWIRQPPGKALEWLAHIWWDDDKRYNPALKSRLTISKDTSKNQVVLTMTNMDPVDTATYYCAQINPAWFAYWGQGTLVTVSSLGGC
notes: hinge/Fc at the N-terminus of the heavier chain; about 150 kDa species on Western blot; also called constructs 1 and 9; constructs 9+1

binding result [1]: binds
binding result [2]: binds
B2: diabody of constructs 10 and 1 (pMGX0718 + pMGX0669) (bispecific antibody)
chain 1: not shown
chain 2: B1 chain 2
notes: Fc at the N-terminus of the heavier chain; at least two species of about 75 and 100 kDa on Western blot; also called constructs 1 and 10; constructs 10+1; copies: 2 + 2
